From US20180295858

Target: T1, H-AAPPA-NH2
T1 chain: AAPPA

B1: proline tolerant tripeptidyl peptidase TRI083 (protein)
chain: QEPSSCKGTLVFEGETFNVFQPDCLRTEYSVDGYTPSVKSGSRIGFGSFLNESASFADQALFEKHFNIPSQNFSVVLINGGTDLPQPPSDANDGEANLDAQTILTIAHPLPITEFITAGSPPYFPDPVEPAGTPNENEPYLQYYEFLLSKSNAEIPQVITNSYGDEEQTVPRSYAVRVCNLIGLLGLRGISVLHSSGDEGVGASCVATNSTTPQFNPIFPATCPYVTSVGGTVSFNPEVAWAGSSGGFSYYFSRPWYQQEAVGTYLEKYVSAETKKYYGPYVDFSGRGFPDVAAHSVSPDYPVFQGGELTPSGGTSAASPVVAAIVALLNDARLREGKPTLGFLNPLIYLHASKGFTDITSGQSEGCNGNNTQTGSPLPGAGFIAGAHWNATKGWDPTTGFGVPNLKKLLALVRF
  hydrolysis of synthetic substrate AAPPA, LC-MS with label free quantification: over time is able to degrade the peptide AAPPA (FIG. 5) and generate the product AAP (FIG. 6)
